# According to IntAct's records for PubMed 17891176:
# B1: DNA-binding protein inhibitor ID-1 (Homo sapiens), P41134 (parent)
# chain: MKVASGSTATAAAGPSCALKAGKTASGAGEVVRCLSEQSVAISRCAGGAGARLPALLDEQQVNVLLYDMNGCYSRLKELVPTLPQNRKVSKVEILQHVIDYIRDLQLELNSESEVGTPGGRGLPVRAPLSTLNGEISALTAEAACVPADDRILCR
# Variants of: B1
# Settings: with psmd4_human PSMD4, P55036
# psmd4_human PSMD4, P55036, sequence (P55036 whole entry): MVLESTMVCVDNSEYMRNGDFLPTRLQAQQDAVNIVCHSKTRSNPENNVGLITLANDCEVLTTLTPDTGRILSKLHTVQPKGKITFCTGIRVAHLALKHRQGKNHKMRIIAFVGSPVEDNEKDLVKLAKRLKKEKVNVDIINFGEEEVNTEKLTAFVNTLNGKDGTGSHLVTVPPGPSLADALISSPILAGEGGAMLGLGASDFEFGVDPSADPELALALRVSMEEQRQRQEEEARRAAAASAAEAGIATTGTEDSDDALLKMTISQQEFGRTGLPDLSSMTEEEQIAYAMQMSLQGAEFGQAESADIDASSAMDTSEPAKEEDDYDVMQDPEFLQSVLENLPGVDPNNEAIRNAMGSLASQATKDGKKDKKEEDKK
row,Variant,effect of a mutation on the interaction
1,MKVASGSTATAAAGPSCALKAGKTASGAGEVVRCLSEQSVAISRCAGGAGARLPALLDEQQVNVLLYDMNGCYSRLKELVPTLPQNRKVSKVEILQHGIDYIRDLQLELNSESEVGTPGGRGLPVRAPLSTLNGEISALTAEAACVPADDRILCR [V98G],decreasing interaction
